T1: APBA2_1, Q99767
T1 sequence (Q99767 563-664, limits assumed, looked up): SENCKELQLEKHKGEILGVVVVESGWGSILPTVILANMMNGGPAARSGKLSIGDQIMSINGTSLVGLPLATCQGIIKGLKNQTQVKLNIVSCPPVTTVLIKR

T2: APBA3_1, O96018
T2 sequence (O96018 389-490, limits assumed, looked up): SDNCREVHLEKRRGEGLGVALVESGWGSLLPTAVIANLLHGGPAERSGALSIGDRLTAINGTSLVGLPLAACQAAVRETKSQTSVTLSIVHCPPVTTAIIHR

T3: GRIP1_7, Q9Y3R0
T3 sequence (Q9Y3R0 999-1096, limits assumed, looked up): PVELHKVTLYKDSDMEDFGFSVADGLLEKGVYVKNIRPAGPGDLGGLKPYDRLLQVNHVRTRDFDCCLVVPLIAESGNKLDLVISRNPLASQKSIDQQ

T4: HTRA4, P83105
T4 sequence (P83105 378-476, limits assumed, looked up): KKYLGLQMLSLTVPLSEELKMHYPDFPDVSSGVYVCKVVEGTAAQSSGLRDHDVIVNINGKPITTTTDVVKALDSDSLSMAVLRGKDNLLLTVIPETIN

T5: LNX2_3, Q8N448
T5 sequence (Q8N448 463-564, limits assumed, looked up): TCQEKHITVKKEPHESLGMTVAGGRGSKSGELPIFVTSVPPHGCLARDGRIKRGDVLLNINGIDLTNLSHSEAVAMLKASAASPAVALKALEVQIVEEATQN

T6: MPP6, Q9NZW5
T6 sequence (Q9NZW5 125-219, limits assumed, looked up): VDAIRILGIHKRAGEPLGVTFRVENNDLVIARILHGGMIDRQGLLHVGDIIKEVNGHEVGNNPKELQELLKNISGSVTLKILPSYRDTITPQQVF

T7: PDZD2_2, O15018
T7 sequence (O15018 329-429, limits assumed, looked up): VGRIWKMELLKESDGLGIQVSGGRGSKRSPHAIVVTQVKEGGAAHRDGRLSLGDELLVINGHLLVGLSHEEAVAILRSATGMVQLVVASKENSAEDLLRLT

T8: RADIL, Q96JH8
T8 sequence (Q96JH8 971-1071, limits assumed, looked up): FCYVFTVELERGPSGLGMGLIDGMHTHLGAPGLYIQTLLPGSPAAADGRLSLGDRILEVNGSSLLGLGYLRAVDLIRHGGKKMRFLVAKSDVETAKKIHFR

T9: RAPGEF6, Q8TEU7
T9 sequence (Q8TEU7 525-625, limits assumed, looked up): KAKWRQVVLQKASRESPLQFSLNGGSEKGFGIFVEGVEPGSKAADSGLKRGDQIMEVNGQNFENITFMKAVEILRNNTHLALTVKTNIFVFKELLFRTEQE

T10: SNTB1, Q13884
T10 sequence (Q13884 107-205, limits assumed, looked up): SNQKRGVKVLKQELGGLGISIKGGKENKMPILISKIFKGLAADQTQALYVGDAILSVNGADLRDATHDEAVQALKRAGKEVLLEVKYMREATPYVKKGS

T11: SNTG1, Q9NSN8
T11 sequence (Q9NSN8 52-150, limits assumed, looked up): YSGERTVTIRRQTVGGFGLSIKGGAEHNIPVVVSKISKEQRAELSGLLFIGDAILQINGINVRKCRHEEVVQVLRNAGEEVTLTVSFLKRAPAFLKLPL

T12: TIAM2, Q8IVF5
T12 sequence (Q8IVF5 885-986, limits assumed, looked up): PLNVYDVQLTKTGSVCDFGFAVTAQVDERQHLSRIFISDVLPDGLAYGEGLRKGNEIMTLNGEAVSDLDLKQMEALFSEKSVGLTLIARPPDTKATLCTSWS

B1: NLGN4X, Q8N0W4 (peptide)
chain: LPHGHSTTRV
B2: MYOZ3, Q8TDC0 (peptide)
chain: VRNLPESEEL
B3: MMP24, Q9Y5R2 (peptide)
chain: YYKRPVQEWV
B4: SLC22A12, Q96S37 (peptide)
chain: GNSVLKSTQF

Each binder was assayed against T1, APBA2_1, Q99767 (assay: holdup assay). Conditions: plain residues with an end cap or a label only (N-terminal biotin on a linker: ado-ado).
Parameters: key: below the threshold = too weak to quantify, mostly under pKd 3.1 to 4
With B1 the pKd was “below the threshold”. In the case of B2, the pKd is reported as “below the threshold”. For B3, the pKd was “below the threshold”. B4 was tested, and the pKd was “below the threshold”.

What follows are binders tested against T2, APBA3_1, O96018 (assay: holdup assay). Conditions: plain residues with an end cap or a label only (N-terminal biotin on a linker: ado-ado).
Parameters: key: below the threshold = too weak to quantify, mostly under pKd 3.1 to 4
B1 was tested, and the pKd was “below the threshold”. B2 was tested, and the pKd was “below the threshold”. For B3, the pKd was “below the threshold”. With B4 the pKd was “below the threshold”.

These binders were tested against DLG1_1, Q12959 (assay: holdup assay). Conditions: plain residues with an end cap or a label only (N-terminal biotin on a linker: ado-ado).
Parameters: key: below the threshold = too weak to quantify, mostly under pKd 3.1 to 4
Binder B1 has a pKd of 3.82. B2 was tested, and the pKd was “below the threshold”. For B3, the pKd was “below the threshold”. With B4 the pKd was “below the threshold”.

Each binder was assayed against DLG4_1, P78352 (assay: holdup assay). Conditions: plain residues with an end cap or a label only (N-terminal biotin on a linker: ado-ado).
Chain of DLG4_1, P78352 (P78352 62-152): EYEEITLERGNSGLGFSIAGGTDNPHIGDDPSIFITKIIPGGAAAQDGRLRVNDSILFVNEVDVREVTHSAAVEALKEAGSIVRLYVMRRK
Parameters: key: below the threshold = too weak to quantify, mostly under pKd 3.1 to 4
In the case of B1, the pKd is reported as 3.51. B2 was tested, and the pKd was “below the threshold”. With B3 the pKd was “below the threshold”. With B4 the pKd was “below the threshold”.

The binders below were run against DLG5_1, Q8TDM6 (assay: holdup assay). Conditions: plain residues with an end cap or a label only (N-terminal biotin on a linker: ado-ado).
Chain of DLG5_1, Q8TDM6 (Q8TDM6 617-713): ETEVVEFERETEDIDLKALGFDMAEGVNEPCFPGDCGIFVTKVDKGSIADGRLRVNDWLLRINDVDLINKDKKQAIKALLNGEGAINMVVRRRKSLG
Parameters: key: below the threshold = too weak to quantify, mostly under pKd 3.1 to 4
B1 was tested, and the pKd was “below the threshold”. For B2, the pKd was “below the threshold”. In the case of B3, the pKd is reported as “below the threshold”. For B4, the pKd was “below the threshold”.

These binders were tested against FRMPD2_2, Q68DX3 (assay: holdup assay). Conditions: plain residues with an end cap or a label only (N-terminal biotin on a linker: ado-ado).
Chain of FRMPD2_2, Q68DX3 (Q68DX3 944-1038): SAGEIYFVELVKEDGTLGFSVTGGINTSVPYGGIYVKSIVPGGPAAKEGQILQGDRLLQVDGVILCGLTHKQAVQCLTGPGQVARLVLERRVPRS
Parameters: key: below the threshold = too weak to quantify, mostly under pKd 3.1 to 4
With B1 the pKd was 3.63. For B2, the pKd was “below the threshold”. B3 was tested, and the pKd was “below the threshold”. With B4 the pKd was “below the threshold”.

The binders below were run against T3, GRIP1_7, Q9Y3R0 (assay: holdup assay). Conditions: plain residues with an end cap or a label only (N-terminal biotin on a linker: ado-ado).
Parameters: key: below the threshold = too weak to quantify, mostly under pKd 3.1 to 4
With B1 the pKd was “below the threshold”. In the case of B2, the pKd is reported as “below the threshold”. B3 gave a pKd of 3.71. In the case of B4, the pKd is reported as “below the threshold”.

The binders below were run against GRIP2_4, Q9C0E4 (assay: holdup assay). Conditions: plain residues with an end cap or a label only (N-terminal biotin on a linker: ado-ado).
Chain of GRIP2_4, Q9C0E4 (Q9C0E4 446-548): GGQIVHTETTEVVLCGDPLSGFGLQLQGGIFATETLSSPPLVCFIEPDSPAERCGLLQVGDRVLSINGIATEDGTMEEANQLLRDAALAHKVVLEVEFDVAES
Parameters: key: below the threshold = too weak to quantify, mostly under pKd 3.1 to 4
B1 was tested, and the pKd was “below the threshold”. For B2, the pKd was “below the threshold”. For B3, the pKd was “below the threshold”. In the case of B4, the pKd is reported as “below the threshold”.

What follows are binders tested against GRIP2_5, Q9C0E4 (assay: holdup assay). Conditions: plain residues with an end cap or a label only (N-terminal biotin on a linker: ado-ado).
Chain of GRIP2_5, Q9C0E4 (Q9C0E4 544-642): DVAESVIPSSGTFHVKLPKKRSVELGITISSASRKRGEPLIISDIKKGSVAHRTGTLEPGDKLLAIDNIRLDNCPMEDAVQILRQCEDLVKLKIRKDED
Parameters: key: below the threshold = too weak to quantify, mostly under pKd 3.1 to 4
With B1 the pKd was “below the threshold”. With B2 the pKd was “below the threshold”. B3 was tested, and the pKd was “below the threshold”. For B4, the pKd was “below the threshold”.

The binders below were run against GRIP2_6, Q9C0E4 (assay: holdup assay). Conditions: plain residues with an end cap or a label only (N-terminal biotin on a linker: ado-ado).
Chain of GRIP2_6, Q9C0E4 (Q9C0E4 648-740): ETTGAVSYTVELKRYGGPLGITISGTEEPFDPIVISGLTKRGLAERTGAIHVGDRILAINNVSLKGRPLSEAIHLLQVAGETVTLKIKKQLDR
Parameters: key: below the threshold = too weak to quantify, mostly under pKd 3.1 to 4
With B1 the pKd was “below the threshold”. B2 was tested, and the pKd was “below the threshold”. B3 was tested, and the pKd was “below the threshold”. B4 was tested, and the pKd was “below the threshold”.

What follows are binders tested against T4, HTRA4, P83105 (assay: holdup assay). Conditions: plain residues with an end cap or a label only (N-terminal biotin on a linker: ado-ado).
Parameters: key: below the threshold = too weak to quantify, mostly under pKd 3.1 to 4
For B1, the pKd was 4.04. B2 showed a pKd of 3.94. Work on B3 yielded a pKd of 4.37. With B4 the pKd was “below the threshold”.

These binders were tested against Inadl_2, Q8NI35 (assay: holdup assay). Conditions: plain residues with an end cap or a label only (N-terminal biotin on a linker: ado-ado).
Chain of Inadl_2, Q8NI35 (Q8NI35 238-335): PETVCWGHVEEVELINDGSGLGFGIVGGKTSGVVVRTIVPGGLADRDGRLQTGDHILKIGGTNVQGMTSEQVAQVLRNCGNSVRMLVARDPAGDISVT
Parameters: key: below the threshold = too weak to quantify, mostly under pKd 3.1 to 4
With B1 the pKd was “below the threshold”. B2 was tested, and the pKd was “below the threshold”. B3 gave a pKd of 3.94. With B4 the pKd was “below the threshold”.

The binders below were run against Inadl_3, Q8NI35 (assay: holdup assay). Conditions: plain residues with an end cap or a label only (N-terminal biotin on a linker: ado-ado).
Chain of Inadl_3, Q8NI35 (Q8NI35 359-469): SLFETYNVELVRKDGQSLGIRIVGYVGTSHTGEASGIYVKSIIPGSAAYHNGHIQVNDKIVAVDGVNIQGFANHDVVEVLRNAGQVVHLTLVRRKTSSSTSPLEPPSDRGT
Parameters: key: below the threshold = too weak to quantify, mostly under pKd 3.1 to 4
With B1 the pKd was “below the threshold”. In the case of B2, the pKd is reported as “below the threshold”. B3 was tested, and the pKd was “below the threshold”. With B4 the pKd was “below the threshold”.

Each binder was assayed against Inadl_5, Q8NI35 (assay: holdup assay). Conditions: plain residues with an end cap or a label only (N-terminal biotin on a linker: ado-ado).
Chain of Inadl_5, Q8NI35 (Q8NI35 673-780): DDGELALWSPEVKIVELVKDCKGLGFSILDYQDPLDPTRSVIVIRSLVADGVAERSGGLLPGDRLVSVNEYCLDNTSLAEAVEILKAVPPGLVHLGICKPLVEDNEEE
Parameters: key: below the threshold = too weak to quantify, mostly under pKd 3.1 to 4
With B1 the pKd was “below the threshold”. For B2, the pKd was “below the threshold”. In the case of B3, the pKd is reported as 4.47. For B4, the pKd was “below the threshold”.

Each binder was assayed against LIMK2, P53671 (assay: holdup assay). Conditions: plain residues with an end cap or a label only (N-terminal biotin on a linker: ado-ado).
Chain of LIMK2, P53671 (P53671 143-248): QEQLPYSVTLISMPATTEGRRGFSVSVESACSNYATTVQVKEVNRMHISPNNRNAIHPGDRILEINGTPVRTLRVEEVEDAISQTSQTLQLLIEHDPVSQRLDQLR
Parameters: key: below the threshold = too weak to quantify, mostly under pKd 3.1 to 4
B1 was tested, and the pKd was “below the threshold”. For B2, the pKd was “below the threshold”. With B3 the pKd was “below the threshold”. B4 was tested, and the pKd was “below the threshold”.

These binders were tested against T5, LNX2_3, Q8N448 (assay: holdup assay). Conditions: plain residues with an end cap or a label only (N-terminal biotin on a linker: ado-ado).
Parameters: key: below the threshold = too weak to quantify, mostly under pKd 3.1 to 4
For B1, the pKd was “below the threshold”. For B2, the pKd was “below the threshold”. In the case of B3, the pKd is reported as “below the threshold”. In the case of B4, the pKd is reported as “below the threshold”.

What follows are binders tested against T6, MPP6, Q9NZW5 (assay: holdup assay). Conditions: plain residues with an end cap or a label only (N-terminal biotin on a linker: ado-ado).
Parameters: key: below the threshold = too weak to quantify, mostly under pKd 3.1 to 4
For B1, the pKd was “below the threshold”. Work on B2 yielded a pKd of 3.64. With B3 the pKd was “below the threshold”. For B4, the pKd was “below the threshold”.

These binders were tested against PDLIM1, O00151 (assay: holdup assay). Conditions: plain residues with an end cap or a label only (N-terminal biotin on a linker: ado-ado).
Chain of PDLIM1, O00151 (O00151 1-87): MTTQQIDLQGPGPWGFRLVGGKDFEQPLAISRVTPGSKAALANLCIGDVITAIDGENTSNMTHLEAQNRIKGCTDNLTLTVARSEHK
Parameters: key: below the threshold = too weak to quantify, mostly under pKd 3.1 to 4
B1 was tested, and the pKd was “below the threshold”. Work on B2 yielded a pKd of 5.23. For B3, the pKd was “below the threshold”. B4 was tested, and the pKd was “below the threshold”.

These binders were tested against T7, PDZD2_2, O15018 (assay: holdup assay). Conditions: plain residues with an end cap or a label only (N-terminal biotin on a linker: ado-ado).
Parameters: key: below the threshold = too weak to quantify, mostly under pKd 3.1 to 4
With B1 the pKd was 3.53. B2 was tested, and the pKd was “below the threshold”. B3 gave a pKd of 5.65. With B4 the pKd was “below the threshold”.

Each binder was assayed against T8, RADIL, Q96JH8 (assay: holdup assay). Conditions: plain residues with an end cap or a label only (N-terminal biotin on a linker: ado-ado).
Parameters: key: below the threshold = too weak to quantify, mostly under pKd 3.1 to 4
B1 gave a pKd of 3.7. For B2, the pKd was “below the threshold”. B3 showed a pKd of 5.63. B4 was tested, and the pKd was “below the threshold”.

Each binder was assayed against T9, RAPGEF6, Q8TEU7 (assay: holdup assay). Conditions: plain residues with an end cap or a label only (N-terminal biotin on a linker: ado-ado).
Parameters: key: below the threshold = too weak to quantify, mostly under pKd 3.1 to 4
With B1 the pKd was “below the threshold”. B2 was tested, and the pKd was “below the threshold”. In the case of B3, the pKd is reported as “below the threshold”. For B4, the pKd was “below the threshold”.

What follows are binders tested against T10, SNTB1, Q13884 (assay: holdup assay). Conditions: plain residues with an end cap or a label only (N-terminal biotin on a linker: ado-ado).
Parameters: key: below the threshold = too weak to quantify, mostly under pKd 3.1 to 4
B1 gave a pKd of 4.27. B2 was tested, and the pKd was “below the threshold”. With B3 the pKd was “below the threshold”. For B4, the pKd was “below the threshold”.

What follows are binders tested against T11, SNTG1, Q9NSN8 (assay: holdup assay). Conditions: plain residues with an end cap or a label only (N-terminal biotin on a linker: ado-ado).
Parameters: key: below the threshold = too weak to quantify, mostly under pKd 3.1 to 4
With B1 the pKd was “below the threshold”. In the case of B2, the pKd is reported as “below the threshold”. For B3, the pKd was “below the threshold”. For B4, the pKd was “below the threshold”.

The binders below were run against T12, TIAM2, Q8IVF5 (assay: holdup assay). Conditions: plain residues with an end cap or a label only (N-terminal biotin on a linker: ado-ado).
Parameters: key: below the threshold = too weak to quantify, mostly under pKd 3.1 to 4
B1 was tested, and the pKd was “below the threshold”. For B2, the pKd was “below the threshold”. With B3 the pKd was 4.08. Binder B4 has a pKd of 4.13.

Each binder was assayed against TJP1_3, Q07157 (assay: holdup assay). Conditions: plain residues with an end cap or a label only (N-terminal biotin on a linker: ado-ado).
Chain of TJP1_3, Q07157 (Q07157 416-512): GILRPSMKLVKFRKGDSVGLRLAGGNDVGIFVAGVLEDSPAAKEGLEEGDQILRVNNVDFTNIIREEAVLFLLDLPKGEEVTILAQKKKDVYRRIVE
Parameters: key: below the threshold = too weak to quantify, mostly under pKd 3.1 to 4
For B1, the pKd was “below the threshold”. With B2 the pKd was “below the threshold”. Binder B3 has a pKd of 4.34. In the case of B4, the pKd is reported as “below the threshold”.

From paper PMC9482650, “Quantitative fragmentomics allow affinity mapping of interactomes” (Nature Communications, 2022)
